# From a protein production outcome set (Wang et al. 2014)
# Assay: label from the status in PepcDB records
row,Sequence,protein production
1,MLTEMHIAVIGGDARQLEVIRKLVELDAKLSLIGFDQLDHGFTGAAKESIQNLDFTSVDAIILPVAGTNAKGEVDTIFSNEKVSITKEQIENTPEHFTIYSGIGTPYLENLVSTTNRKLIKLFDRDDVAIYNSIPTVEGTLMMVIQHTDYTIHGSNVMVLGFGRTGMSVARAFQSLGAHVKVGARRSEHIARITEMMFSPFHMQDIEKEVGDIDIVINTIPHLVVTANVISKMPAHTLVIDLASKPGGTDFRYAEKRGVKALLAPGLPGIVAPKTAGQILANVLSQLLAEDVIARKENGE,failed
2,MLTFEKVLEIFADYLTADETIEVYISRHGCVRVEFDQDFHYCSGEVCHTPKELFNLLADDYRTYVEIELTKGRRELTEDDEREADALCKRHLERWREKLE,failed
3,MLTLALCIMILFTYLCMFFNFKYSAHLSIYISQVILGYVVIIIHIGEHTLPIDILVVMSLGALLLHIKHKHLMQNRMSALFLKRLYYVAFKLVVFTLACFYISLIPIGINVIFLWISAISFSALFTFICYMMCSSNFLNLNNKPDFDVILVLGAGIFTENVTPMLASRLDRALTLYVQQPNAKFIVSGGQGPDEPISEALAMKRYLIHHGVESNHIMLEDQSTSTSENIQFSKSLIESHFECVPKIVCVTSQFHIMRALRFGQKFNLKLTGVGSHTPYHFFEIALIRDFLALMYQYKLLLTVYFAALFFICIITYWFIPSIPL,failed
4,MLTLLPTPIGNLQDITLRSLEVLKVAEIILCEDTRVSKRLLSLLSQKELLPPKEYRYISLHSHNEEATLQNLPPDFFTQEVVYMSDAGMPCISDPGAALVRYAQERGISYTVLPGA,failed
5,MLTTTRRAALISGLATTGLAAFGNRAFAQETGAVGAAVDKFAQDVMAAFPDQPGLGITVVENGQITLAKGYGVKALGGQDRCDESTVFGIASNTKAMTAALLAMLVEEGRVEWDAPVTQYLPDFAMKDPIVTKLLTVRDLLVHRSGLSLGAGDLMIWPAPTHTRAEIVAGLKHLPIGGQFRGGYAYDNVLYVVAGAVIEAVTGQTWEQVIKARIFDPLGMSNTVSSPRLVDQSRRALPHARLGPPVRGLGPQKVLPFDASFDAAGPAGGVNSCPADIGKWMQVQLGRGVSADGKRLWSEAQAREMWKPQTITSSSDGPSNENPARPSMQAYALGWYVQDHRGERLLWHTGGLAGFISYTGLLPGRKSGIMIMTNAEENPVLRSLRFGGPDRLQGRSDFDWIASSKRVQAEADAQTIKDAAAATTPKGGGAPPSLPLEAYAGVYRDPWYGTVTISVTGKGKKKGLYVSFDKTPLLRGKLGPFDGETFITTFEDRTQEDAFFTFDIKDGKAVSALVKAVSPLADFSYDYHDLRLTKEG,failed
6,MLTVRNHPGVMSHICGLFARRAFNVDGILCMPLAGGEESRIWLQVLDDQRLQQMISQLEKLEDVLQVCRFDSEMPIFDQVEDLVAHQR,not failed
7,MLVGNYDATLVLTSLFVAILASYTALGMAGRVAASRGVAARVWLGGGAFAMGLGIWSMHFIGMLAFSLPIPLGYDVALTVASMALAVACSAFALWVVTRATLPWRRLAGAAALMGTGIAAMHYTGMAAMRMHPAIEYSPALFMLSVAVAIVASGAALWITHALRHNRPGAPAYRICAAIVMGLAIVGMHYTGMAAANFPQGSVCMAANSGISAGWLAVSTAAVTLAVLAVALVVAVLDTRLETRTSALNASLAQANEELVQMALHDTLTKLPNRALLDERLKQAIIRATAAGRGFSLLFIDLDGFKAINDAYGHGAGDLLLVEMAQRIKRAMRPQDCVARLGGDEFVVLADLPDPNDAAGLAERLIDTLTVPAEVQGHEVSVAASIGIALFPGDGADASTLLAHADAAMYHAKRLSQTHRVSFFEPSMNEDALEQLQLLQDLRLALPRNQLELHYQPKFVAPAGPVVGAEALLRWNHPTRGVIGPTVFIPIAERTGLIFSIGAWVLDEACRQMRQWRDMGHADWTVAVNLSSLQFSQPDLIDSIRATLARHDLPPRCLAIEITESTAMRDAEASLTVLRELAELGVSISIDDFGTGYSSLLYLKRLPATELKIDRGFVNQLEHDNEDAAIVSAIIALGQKLNLKIVAEGVETLAQQSFLTEMGCDSLQGFLLGRPLPAAEFLAHTLQPQLA,failed
8,MLVSCAMRLHSGVFPDYAEKLPQEEKMEKEDSFPQRVWQIVAAIPEGYVTTYGDVAKLAGSPRAARQVGGVLKRLPEGSTLPWHRVVNRHGTISLTGPDLQRQRQALLAEGVMVSGSGQIDLQRYRWNY,failed
9,MLVSSSKITRAREMVTKTEEKQLNQLEIQVDNGGGGTWEYLCLVRNLKVRRSEKVLKHGSSILNDQKKRSALGPDEWTLNEQVAIAAMDCQCLGVAQSCIKALQTKFPGSKRVGRLEALLLEAKGLWGEAEEAYASLLEDNPLDQAIHKRRVAISKALGKPSIAIELLNKYLELFMADHDAWRELAELYLSLQMYKQAAFCYEELILSQPTVPLYHLAYAEVLYTIGGVENIISARKYYAATVDLTGGKNTRALLGICLCASAIAQLSKGRNKEDKDATAAPELHSLAAAAVEKEYKQKAPDKLQLISSALRILKT,failed
10,MLVTGVARQLGGRFVRRIQRDPNVDRVIAVDAVRPEHHLGGADFIQADIRQPTIARVLAEHSVDTVVHMDVTGTALGTGSRATVKETNVIGTMQLLGACQKSPTVKRLVVKSSTNVYGSAPRDPAVFTETTPPKSLPSGGFAKDTVEVEGYVRGFARRRPDVAVCVLRFANILGPSADSPLASYFSLPVLPTVFGYDPRLQFAHEDDVIDVLRIASYEPRRGTLNSGTFNVAGDGVLLLSQCARRLGRPTVPLLLPAVTWVGSAVRTLGMTDFSPEQIRLLTHGRVVATNQMRETLGYVPKYTTAETFADFARSRGPGLLPPEALAGAVDRIAALPALGGGHPPTQSAN,failed
11,MLVVYIALMICTMTPVLALQAGADMSVLVWLVFGLVIVKAVLLVDHFMEMKHAPWGWRMAAQGWAVVVVSVLAGIHLAG,failed
12,MLWRPVGHGVEALYLATPLGRRVGYGVYVYRYRGLLVDTGPPKARPFAPEAALLTHAHEDHAGGAFRLGLPVYGSALTAALVAAPKPLRLYRRLVWGSPRPAQVEVAERVGPLHLLPTPGHAPDHVALYDPEAGLFFGGDLFLGVRASLATPGFDLQALLQSLRRALALKPRAFYCAHAGPLQAPLEALQAKLDFLEGKREEALRLKARGLTPKEALRRLFGGESPLALLSGGEMSRLAFVEALMMEP,failed
13,MLYRLEKCCTPEIRLLSTYDVCSIAIAAPMRATRSQGVWDFFWETILMAYTTAQLVTAYTNANLGKAPDAATTLTLDAYATQTQTGGLSDAAALTNTLKLVNSTTAVAIQTYQFFTGVAPSAAGLDFLVDSTTNTNDLNDAYYSKFAQENRFINFSINLATGAGAGATAFAAAYTGVSYAQTVATAYDKIIGNAVATAAGVDVAAAVAFLSRQANIDYLTAFVRANTPFTAAADIDLAVKAALIGTILNAATVSGIGGYATATAAMINDLSDGALSTDNAAGVNLFTAYPSSGVSGSTLSLTTGTDTLTGTANNDTFVAGEVAGAATLTVGDTLSGGAGTDVLNWVQAAAVTALPTGVTISGIETMNVTSGAAITLNTSSGVTGLTALNTNTSGAAQTVTAGAGQNLTATTAAQAANNVAVDGGANVTVASTGVTSGTTTVGANSAASGTVSVSVANSSTTTTGAIAVTGGTAVTVAQTAGNAVNTTLTQADVTVTGNSSTTAVTVTQTAAATAGATVAGRVNGAVTITDSAAASATTAGKIATVTLGSFGAATIDSSALTTVNLSGTGTSLGIGRGALTATPTANTLTLNVNGLTTTGAITDSEAAADDGFTTINIAGSTASSTIASLVAADATTLNISGDARVTITSHTAAALTGITVTNSVGATLGAELATGLVFTGGAGADSILLGATTKAIVMGAGDDTVTVSSATLGAGGSVNGGDGTDVLVANVNGSSFSADPAFGGFETLRVAGAAAQGSHNANGFTALQLGATAGATTFTNVAVNVGLTVLAAPTGTTTVTLANATGTSDVFNLTLSSSAALAAGTVALAGVETVNIAATDTNTTAHVDTLTLQATSAKSIVVTGNAGLNLTNTGNTAVTSFDASAVTGTGSAVTFVSANTTVGEVVTIRGGAGADSLTGSATANDTIIGGAGADTLVYTGGTDTFTGGTGADIFDINAIGTSTAFVTITDAAVGDKLDLVGISTNGAIADGAFGAAVTLGAAATLAQYLDAAAAGDGSGTSVAKWFQFGGDTYVVVDSSAGATFVSGADAVIKLTGLVTLTTSAFATEVLTLA,failed
14,MLYSSDLLAIVGAGEQASLSPRRLCLFKTTTGLPLRELNFLTSILAVRMNKKRLVVVLLEKTFVYDLNTLVMLDTIDTVPNPKGLSAFSPSLEGCYLAVPASTTKGSVLVYNVMDLQSHSEIDAHRSPLAAIALSSNGMYIATGSEQGTLIRVHLVSEATKSYSFRRGTYPSTIYSLSFGPSTQLPDILIATSSSGSIHAFSLSLAINQRSKRSTSFLGSVLPDSVSDALDPAHHHVLQNAVSSGIRSYAVVRKIDKLEGTSSPSHFTSLRATVSVITYNGYFQEYTLSINNKNESLWTLEREFNLFSITTG,failed
15,MLYTTFSAIIPSFLIILIGYTVGKIFSEETMGLASKVAIWVMVPTVTFTFINEYTPSFSTLGEFGLGVAIIFVIFYLYSRLFKEKKEVIHVTAVTANVGYLGYPILLSLWGEEALSLGVVYATLNIIMFSAVLPMFLGEKVNVKNLFKLPYVYALVAGFLTGKLGWSFRELPEWLVNAILMLKQSAIPYLLIYVGLSVSKLKLGRHLSKIGGIIVVNKLFLAPLIALVFALIYGLEGLTAKVFVLETAMPAAVNAVILTSALGGDSETVSYGVTLTTFFAIFTLPVWAVILESIFG,failed
16,MMAGFAQTTITKINQFYERWMPRLPAEMTARNVLVFCVVCLLCIGSVMVASASMPYAEYMHENPFHYVVRHAISIATAAIVAYLVYKVPLNVWFKNTFSFWLITILLLLAVLVIGTEVNGSRRWIRLAGFTLQPTEVAKVMMAIFTADYVVRRAKEVRTHWKGLVRLSGVMAITVGLIIAEPDLGATVVIVLMMVGIFFLAGAPPTQFAIMLGAVVMGIGFLILFEPYRLARAMSFTNPWADPLGTGYQLSNALMAFGRGEWFGTGLGHSVQKLSYLPEAHTDFMLAVLGEEFGFVGISIVIGLSFIMLACCIKIGHRALKHNFLRAGYLAYGISIIFLLQIIVNAGMNMGLMPTKGLTLPFISYGGTSLMMCAAMISLILRIDASTQEINPDREESNF,failed
17,MMARVEKLRELMKENNLQGFLVTSPYNLRYLTNFTGTTGLAMITLDKAFFVTDFRYTEQAAEQATGFTIVKNTGHIFDEVADLAERLQLDNLAFEETQVSFADYSLLEEILPCELVPVMGLIEELREVK,not failed
18,MMCAARNTMSSSGSSPSGSDLQAFVMEFIITGFLMLVVCAVTTTKRTTEELEGLIIGATVTLNVIFVGEVSGASMNPARSIGPALVWGCYKGIWIYLLAPTLGAVSRALIHKMLPSIPNAEPKFSKTGSSHKRVSDLPL,failed
19,MMDGSTFYFVAWIGWIIVTFFMKKDPIRWKLGACILIFIICSPLHVTIASFVVSVNALLLCIISFIGITLYSVWKKLYSLLSALIIAMLYTSFHLLEIYDPIWIVVDRVFLLSSALVYASVLLHGDRILRLCSLYVGMLQAELLVTFIFSKLNFPYDYGSLAFFDIVAISTLFMAILFWIAKASVYMERFKRKTRKRKARVIHD,failed
20,MMDVARAKFLPHEQVTFQVADATTLPFENEAFDAVVCQFGVMFFDKDTAFREAYRTLGRGGRYLFSVWDSRRYNPFASLAFEVLKQFFPLNPPRFLEAPVSSFEIDPIKEALIQSGFERIVISVQGREHDILDVRTFARGLVFSPVIEEIRERGGVEPEDIIAALAEALKREYGSRPTRYPMQAILFEAEKP,failed
